Results on 125 sequences are retold here after the supplement of paper PMC9112550, “Optimization of the antimicrobial peptide Bac7 by deep mutational scanning” (BMC Biology, 2022).

The data set relates to Escherichia coli TOP10. Put plainly: shrunken log2 fold change of peptide-encoding DNA abundance (4.5 h post-induction vs induction); higher = less antimicrobial activity (less host growth inhibition). The following applies: time post-induction: 4.5 h; library: site-saturation at positions 5, 18, 19, 20.
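Note: peptides expressed intracellularly from a pBAD plasmid library in pooled LB shake-flask culture, induced with 0.3% L-arabinose, DNA abundance read by NGS, three biological replicates, DESeq2 with apeglm shrinkage.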

RRIRKRPPRLPRPRPRPDCHPRP: the “shrunken log2 fold change” value amounted to 0.233.

With RRIRPRPPRLPRPRPRPMMAPRP, the “shrunken log2 fold change” value was found to be 0.0466.

Take RRIRVRPPRLPRPRPRPILEPRP: the “shrunken log2 fold change” value was determined as 0.13.

Regarding RRIRWRPPRLPRPRPRPSNDPRP, the “shrunken log2 fold change” value turned out to be 0.391.

Take RRIRHRPPRLPRPRPRPCNTPRP: the “shrunken log2 fold change” value is -0.416.

Turning to RRIRNRPPRLPRPRPRPLIFPRP, the “shrunken log2 fold change” value stood at 1.39.

For RRIRQRPPRLPRPRPRPECGPRP, the “shrunken log2 fold change” value came to 0.238.

RRIRPRPPRLPRPRPRPWGCPRP: the “shrunken log2 fold change” value was -0.0706.

On to RRIRERPPRLPRPRPRPIFVPRP, for which the “shrunken log2 fold change” value was -0.295.

As for RRIRQRPPRLPRPRPRPISCPRP, the “shrunken log2 fold change” value was -0.00146.

As to RRIRWRPPRLPRPRPRPMWYPRP, the “shrunken log2 fold change” value was -0.0539.

On to RRIRNRPPRLPRPRPRPHEIPRP, for which the “shrunken log2 fold change” value is -0.102.

For the sequence RRIRPRPPRLPRPRPRPTYYPRP, the “shrunken log2 fold change” value was -0.636.

Consider RRIRHRPPRLPRPRPRPMHWPRP, for which the “shrunken log2 fold change” value was -0.134.

For RRIRARPPRLPRPRPRPWDKPRP, the “shrunken log2 fold change” value was found to be 0.0886.

Take RRIRTRPPRLPRPRPRPGKDPRP: the “shrunken log2 fold change” value was determined as 0.0234.

For the sequence RRIRDRPPRLPRPRPRPDERPRP, the “shrunken log2 fold change” value was found to be 0.0336.

With RRIRGRPPRLPRPRPRPSYSPRP, the “shrunken log2 fold change” value was -0.0047.

With RRIRMRPPRLPRPRPRPHCCPRP, the “shrunken log2 fold change” value is -0.0266.

As to RRIRIRPPRLPRPRPRPLRQPRP, the “shrunken log2 fold change” value is 0.335.

RRIRRRPPRLPRPRPRPMNIPRP: the “shrunken log2 fold change” value was -0.267.

In the case of RRIRSRPPRLPRPRPRPQILPRP, the “shrunken log2 fold change” value was -0.0216.

As to RRIRWRPPRLPRPRPRPGWMPRP, the “shrunken log2 fold change” value was determined as 0.366.

Consider RRIRTRPPRLPRPRPRPKSGPRP, for which the “shrunken log2 fold change” value worked out at 0.0903.

With RRIRMRPPRLPRPRPRPEWSPRP, the “shrunken log2 fold change” value is 0.721.

In the case of RRIRNRPPRLPRPRPRPMINPRP, the “shrunken log2 fold change” value is -0.346.

Take RRIRKRPPRLPRPRPRPESSPRP: the “shrunken log2 fold change” value was -0.000321.

In the case of RRIRYRPPRLPRPRPRPVIDPRP, the “shrunken log2 fold change” value was -0.942.

As for RRIRERPPRLPRPRPRPEMPPRP, the “shrunken log2 fold change” value was 0.112.

As to RRIRKRPPRLPRPRPRPAKIPRP, the “shrunken log2 fold change” value was -0.266.

On to RRIRRRPPRLPRPRPRPHERPRP, for which the “shrunken log2 fold change” value was 0.225.

As to RRIRVRPPRLPRPRPRPIEIPRP, the “shrunken log2 fold change” value is -0.00163.

Take RRIRERPPRLPRPRPRPAGFPRP: the “shrunken log2 fold change” value amounted to 0.67.

With RRIRIRPPRLPRPRPRPMMKPRP, the “shrunken log2 fold change” value was -0.166.

RRIRLRPPRLPRPRPRPPKQPRP: the “shrunken log2 fold change” value was determined as 0.0446.

As to RRIRERPPRLPRPRPRPNFHPRP, the “shrunken log2 fold change” value is -0.382.

Turning to RRIRKRPPRLPRPRPRPSDVPRP, the “shrunken log2 fold change” value was -0.157.

On to RRIRDRPPRLPRPRPRPAHDPRP, for which the “shrunken log2 fold change” value amounted to 0.414.

For RRIRKRPPRLPRPRPRPVHEPRP, the “shrunken log2 fold change” value stood at 0.325.

As to RRIRYRPPRLPRPRPRPPIVPRP, the “shrunken log2 fold change” value was -0.756.

For the sequence RRIRHRPPRLPRPRPRPDHMPRP, the “shrunken log2 fold change” value was determined as 0.00372.

As to RRIRTRPPRLPRPRPRPKDQPRP, the “shrunken log2 fold change” value was -0.0284.

RRIRGRPPRLPRPRPRPPCPPRP: the “shrunken log2 fold change” value is 0.86.

For RRIRPRPPRLPRPRPRPENPPRP, the “shrunken log2 fold change” value was 0.0677.

On to RRIRSRPPRLPRPRPRPETNPRP, for which the “shrunken log2 fold change” value is -0.0626.

Consider RRIRYRPPRLPRPRPRPAEPPRP, for which the “shrunken log2 fold change” value is 0.0314.

Take RRIRGRPPRLPRPRPRPDINPRP: the “shrunken log2 fold change” value was found to be 1.68.

For the sequence RRIRARPPRLPRPRPRPYNLPRP, the “shrunken log2 fold change” value is -0.00894.

Turning to RRIRSRPPRLPRPRPRPDNDPRP, the “shrunken log2 fold change” value is -0.0528.

Turning to RRIRSRPPRLPRPRPRPLVNPRP, the “shrunken log2 fold change” value is -0.138.

Regarding RRIRKRPPRLPRPRPRPEGNPRP, the “shrunken log2 fold change” value is 2.03.

Regarding RRIRVRPPRLPRPRPRPYVMPRP, the “shrunken log2 fold change” value is -0.619.

RRIRYRPPRLPRPRPRPQEPPRP: the “shrunken log2 fold change” value was -0.273.

With RRIRQRPPRLPRPRPRPRDGPRP, the “shrunken log2 fold change” value was determined as 0.666.

As to RRIRGRPPRLPRPRPRPRENPRP, the “shrunken log2 fold change” value came to 0.978.

As to RRIRGRPPRLPRPRPRPWPFPRP, the “shrunken log2 fold change” value amounted to 0.745.

RRIRERPPRLPRPRPRPRQKPRP: the “shrunken log2 fold change” value came to 0.0386.

RRIRWRPPRLPRPRPRPLLNPRP: the “shrunken log2 fold change” value turned out to be 0.00531.

On to RRIRWRPPRLPRPRPRPGDVPRP, for which the “shrunken log2 fold change” value was determined as 0.0583.

With RRIRHRPPRLPRPRPRPQIPPRP, the “shrunken log2 fold change” value was 0.0645.

Regarding RRIRRRPPRLPRPRPRPGHKPRP, the “shrunken log2 fold change” value came to 0.0528.

In the case of RRIRPRPPRLPRPRPRPQFEPRP, the “shrunken log2 fold change” value is 0.0184.

As for RRIRTRPPRLPRPRPRPSDHPRP, the “shrunken log2 fold change” value was -0.274.

Regarding RRIRPRPPRLPRPRPRPFAFPRP, the “shrunken log2 fold change” value is 0.00781.

In the case of RRIRYRPPRLPRPRPRPKVTPRP, the “shrunken log2 fold change” value was -0.114.

Consider RRIRFRPPRLPRPRPRPWDPPRP, for which the “shrunken log2 fold change” value is -0.78.

As to RRIRVRPPRLPRPRPRPMVTPRP, the “shrunken log2 fold change” value is -0.043.

For the sequence RRIRWRPPRLPRPRPRPAGTPRP, the “shrunken log2 fold change” value amounted to 0.349.

In the case of RRIRRRPPRLPRPRPRPDFLPRP, the “shrunken log2 fold change” value is 1.31.

As for RRIRRRPPRLPRPRPRPIWDPRP, the “shrunken log2 fold change” value was determined as 0.604.

Regarding RRIRWRPPRLPRPRPRPHLLPRP, the “shrunken log2 fold change” value is -0.66.

For the sequence RRIRCRPPRLPRPRPRPNYWPRP, the “shrunken log2 fold change” value is -0.326.

As for RRIRKRPPRLPRPRPRPQHLPRP, the “shrunken log2 fold change” value is 0.0344.

With RRIRARPPRLPRPRPRPQEWPRP, the “shrunken log2 fold change” value stood at 0.00318.

For RRIRMRPPRLPRPRPRPAPIPRP, the “shrunken log2 fold change” value turned out to be 0.618.

As to RRIRDRPPRLPRPRPRPMCLPRP, the “shrunken log2 fold change” value was 0.131.

Take RRIRDRPPRLPRPRPRPEHQPRP: the “shrunken log2 fold change” value is -0.012.

As for RRIRLRPPRLPRPRPRPVRSPRP, the “shrunken log2 fold change” value was 0.53.

Regarding RRIRLRPPRLPRPRPRPDTRPRP, the “shrunken log2 fold change” value is -0.278.

With RRIRMRPPRLPRPRPRPAGPPRP, the “shrunken log2 fold change” value is 0.484.

RRIRTRPPRLPRPRPRPQMDPRP: the “shrunken log2 fold change” value was -0.195.

Regarding RRIRDRPPRLPRPRPRPQWAPRP, the “shrunken log2 fold change” value came to 0.326.

On to RRIRQRPPRLPRPRPRPVSLPRP, for which the “shrunken log2 fold change” value is -0.131.

Take RRIRQRPPRLPRPRPRPLQTPRP: the “shrunken log2 fold change” value is -0.339.

In the case of RRIRFRPPRLPRPRPRPQKAPRP, the “shrunken log2 fold change” value was found to be 0.0467.

Take RRIRGRPPRLPRPRPRPAGAPRP: the “shrunken log2 fold change” value is 1.16.

RRIRTRPPRLPRPRPRPASNPRP: the “shrunken log2 fold change” value is -0.00255.

On to RRIRRRPPRLPRPRPRPPQSPRP, for which the “shrunken log2 fold change” value stood at 0.846.

As for RRIRVRPPRLPRPRPRPRQDPRP, the “shrunken log2 fold change” value came out at 0.582.

Turning to RRIRVRPPRLPRPRPRPCQDPRP, the “shrunken log2 fold change” value was -0.336.

RRIRCRPPRLPRPRPRPISYPRP: the “shrunken log2 fold change” value is -0.485.

On to RRIRGRPPRLPRPRPRPKCWPRP, for which the “shrunken log2 fold change” value was 1.09.

Take RRIRWRPPRLPRPRPRPYVLPRP: the “shrunken log2 fold change” value was -0.843.

As for RRIRARPPRLPRPRPRPPRCPRP, the “shrunken log2 fold change” value was 0.931.

In the case of RRIRPRPPRLPRPRPRPFWRPRP, the “shrunken log2 fold change” value was determined as 0.0788.

On to RRIRQRPPRLPRPRPRPNNPPRP, for which the “shrunken log2 fold change” value was -0.282.

Regarding RRIRYRPPRLPRPRPRPCIFPRP, the “shrunken log2 fold change” value was -0.559.

With RRIRFRPPRLPRPRPRPWYKPRP, the “shrunken log2 fold change” value is -0.145.

For the sequence RRIRTRPPRLPRPRPRPNFPPRP, the “shrunken log2 fold change” value is -0.00778.

As to RRIRPRPPRLPRPRPRPPEQPRP, the “shrunken log2 fold change” value is 0.206.

For RRIRKRPPRLPRPRPRPDKHPRP, the “shrunken log2 fold change” value was determined as 0.0337.

For RRIRVRPPRLPRPRPRPKVEPRP, the “shrunken log2 fold change” value worked out at 0.317.

Consider RRIRNRPPRLPRPRPRPDCWPRP, for which the “shrunken log2 fold change” value is -0.0568.

On to RRIRMRPPRLPRPRPRPKNNPRP, for which the “shrunken log2 fold change” value is 0.311.

Regarding RRIRERPPRLPRPRPRPRQIPRP, the “shrunken log2 fold change” value turned out to be 0.0409.

Turning to RRIRSRPPRLPRPRPRPAATPRP, the “shrunken log2 fold change” value is 0.67.

Regarding RRIRRRPPRLPRPRPRPPTPPRP, the “shrunken log2 fold change” value amounted to 0.769.

RRIRNRPPRLPRPRPRPLIIPRP: the “shrunken log2 fold change” value was -0.433.

RRIRMRPPRLPRPRPRPERHPRP: the “shrunken log2 fold change” value was determined as 0.764.

RRIRTRPPRLPRPRPRPKFYPRP: the “shrunken log2 fold change” value was -0.272.

Take RRIRNRPPRLPRPRPRPSFFPRP: the “shrunken log2 fold change” value is -0.367.

For the sequence RRIRYRPPRLPRPRPRPDGFPRP, the “shrunken log2 fold change” value is -0.418.

As for RRIRHRPPRLPRPRPRPVYVPRP, the “shrunken log2 fold change” value was -0.158.

In the case of RRIRERPPRLPRPRPRPISWPRP, the “shrunken log2 fold change” value was -0.246.

In the case of RRIRRRPPRLPRPRPRPFDEPRP, the “shrunken log2 fold change” value is 0.0762.

With RRIRYRPPRLPRPRPRPESLPRP, the “shrunken log2 fold change” value was -0.0595.

With RRIRKRPPRLPRPRPRPVARPRP, the “shrunken log2 fold change” value came to 0.397.

On to RRIRPRPPRLPRPRPRPHQWPRP, for which the “shrunken log2 fold change” value was -0.0599.

In the case of RRIRERPPRLPRPRPRPGGYPRP, the “shrunken log2 fold change” value is -0.563.

On to RRIRPRPPRLPRPRPRPNCVPRP, for which the “shrunken log2 fold change” value was -0.0731.

Consider RRIRARPPRLPRPRPRPNSFPRP, for which the “shrunken log2 fold change” value was -0.232.

Regarding RRIRIRPPRLPRPRPRPNNIPRP, the “shrunken log2 fold change” value is -0.937.

Take RRIRCRPPRLPRPRPRPLQFPRP: the “shrunken log2 fold change” value is -0.0752.

Consider RRIRKRPPRLPRPRPRPFTAPRP, for which the “shrunken log2 fold change” value is -0.291.

Take RRIRGRPPRLPRPRPRPLRGPRP: the “shrunken log2 fold change” value worked out at 1.29.
